In US7153676B1, “Transacylases of the paclitaxel biosynthetic pathway” (priority 1999, dated 2006):
“Also recorded” adds a separate entry of the source.

Assays:
[1] = target: T1, taxane-2α-O-benzoyl transferase (TAX2) (Taxus cuspidata, UniProt Q9FPW3); assay: recombinant TAX2 benzoyl transferase screening assay (radio-HPLC); assay type: biochemical; conditions: UV and radioactivity profiles
T1 construct: Full-length insert fragments of the relevant plasmids are excised and subcloned in-frame into the expression vector pCWori+; made in house; host or cells: E. coli JM109 (pCWori+)
T1 sequence (Q9FPW3 1-440): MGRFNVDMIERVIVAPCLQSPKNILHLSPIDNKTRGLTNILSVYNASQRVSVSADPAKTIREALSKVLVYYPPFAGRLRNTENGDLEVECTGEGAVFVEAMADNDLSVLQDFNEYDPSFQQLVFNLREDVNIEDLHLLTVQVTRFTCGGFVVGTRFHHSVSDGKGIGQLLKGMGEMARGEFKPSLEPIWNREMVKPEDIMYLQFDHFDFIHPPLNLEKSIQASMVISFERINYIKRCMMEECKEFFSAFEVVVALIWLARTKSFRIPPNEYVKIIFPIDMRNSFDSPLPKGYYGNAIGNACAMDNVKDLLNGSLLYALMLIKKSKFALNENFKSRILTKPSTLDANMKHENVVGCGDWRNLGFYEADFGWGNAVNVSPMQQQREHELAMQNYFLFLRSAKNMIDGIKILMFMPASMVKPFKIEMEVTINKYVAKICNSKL
Procedure: TAX2, TAX5, TAX7, TAX9, TAX10, TAX 12, and TAX13 ([…]) were expressed in bacteria using the following protocol. For a typical preparation of the recombinant enzyme, each of the E. coli cultures transformed with a pCWori+ vector harboring a putative transacylase gene was grown overnight at 37° C. in 5 mL Luria-Bertani medium supplemented with 50 μg ampicillin/mL. 1 mL of these cultures was individually added to separate aliquots of 100 mL Terrific Broth culture medium (6 g bacto-tryptone (Difco Laboratories, Spark, Md.), 12 g yeast extract (EM Science, Cherryhill, N.J.), and 2 mL glycerol in 500 mL water) and grown at 37° C. After 3 hours, the medium was supplemented with 1 mM isopropyl-β-D-thiogalactopyranoside for induction and 50 μg ampicillin/mL, and the cultures were grown at 25° C. […]
A 1-mL aliquot of each soluble enzyme preparation was incubated with 2-debenzoyl-7,13-diacetylbaccatin III (500 μM) and [7-^14C]benzoyl coenzyme A (500 μM, 9.3 μCi) for 1.5 hours at 31° C. […] The resulting crude products of the assay were dissolved in acetonitrile (50 μL) and analyzed by radio-HPLC using a Perkin Elmer HPLC ISS 200 coupled to a PACKARD RADIOMATIC™ radioactivity detector series A100 (Canberra, Ind., Meriden, Conn.) (see FIGS. 12A and 12B for a representative chromatogram). […]

[2] = target: T2, TAX2 gene product (Taxus cuspidata, UniProt Q9FPW3); assay: recombinant TAX2 expressed in E. coli JM109, acetyl transacylase assay; assay type: biochemical; conditions: [3H]taxadienol and acetyl CoA co-substrates
T2 construct: Full-length insert fragments of the relevant plasmids are excised and subcloned in-frame into the expression vector pCWori+; made in house; host or cells: E. coli JM109 (pCWori+)
T2 sequence (Q9FPW3 1-440): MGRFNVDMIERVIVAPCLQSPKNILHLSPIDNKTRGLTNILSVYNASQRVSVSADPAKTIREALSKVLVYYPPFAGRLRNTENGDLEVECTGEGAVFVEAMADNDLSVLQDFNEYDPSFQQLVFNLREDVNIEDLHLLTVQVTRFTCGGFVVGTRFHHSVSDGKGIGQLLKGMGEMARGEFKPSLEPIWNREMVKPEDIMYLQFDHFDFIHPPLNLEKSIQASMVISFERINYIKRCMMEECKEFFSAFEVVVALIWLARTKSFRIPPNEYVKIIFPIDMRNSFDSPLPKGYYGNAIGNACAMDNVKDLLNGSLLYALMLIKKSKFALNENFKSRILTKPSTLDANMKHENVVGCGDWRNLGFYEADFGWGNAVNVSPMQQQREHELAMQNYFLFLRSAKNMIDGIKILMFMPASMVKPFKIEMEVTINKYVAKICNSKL
Procedure: To determine the identity of the putative taxadienol acetyl transacylase, TAX1 (SEQ ID NO: 28), TAX2 (SEQ ID NO: 26), and TAX6 (SEQ ID NO: 45) were subcloned in-frame into the expression vector pCWori+ (Barnes, Methods Enzymol. 272:3–14, 1996) and expressed in E. coli JM109 cells. The transformed bacteria were cultured and induced with isopropyl β-D-thiogalactoside (IPTG), and cell-free extracts were prepared and evaluated for taxadienol acetyl transacylase activity using the previously developed assay procedures (Walker et al., Arch. Biochem. Biophys. 364:273–279, 1999). Clone TAX1 (corresponding directly to Probe 1) expressed high levels of taxadienol acetyl transacylase activity (20% conversion of substrate to product), as determined by radiochemical analysis; the product of this recombinant enzyme was confirmed as taxadienyl-5α-yl acetate by gas chromatography-mass spectrometry (GC-MS) (FIGS. 5A–5G). […] Neither of the recombinant proteins expressed from TAX1 (SEQ ID NO: 28) or TAX2 (SEQ ID NO: 26) was capable of acetylating the advanced paclitaxel precursor 10-deacetyl baccatin III to baccatin III. […]

B1: TAX2: full-length clone, SEQ ID NO: 25/26; taxane-2α-O-benzoyl transferase (protein, listed as Taxus cuspidata)
chain: MGRFNVDMIERVIVAPCLQSPKNILHLSPIDNKTRGLTNILSVYNASQRVSVSADPAKTIREALSKVLVYYPPFAGRLRNTENGDLEVECTGEGAVFVEAMADNDLSVLQDFNEYDPSFQQLVFNLREDVNIEDLHLLTVQVTRFTCGGFVVGTRFHHSVSDGKGIGQLLKGMGEMARGEFKPSLEPIWNREMVKPEDIMYLQFDHFDFIHPPLNLEKSIQASMVISFERINYIKRCMMEECKEFFSAFEVVVALIWLARTKSFRIPPNEYVKIIFPIDMRNSFDSPLPKGYYGNAIGNACAMDNVKDLLNGSLLYALMLIKKSKFALNENFKSRILTKPSTLDANMKHENVVGCGDWRNLGFYEADFGWGNAVNVSPMQQQREHELAMQNYFLFLRSAKNMIDGIKILMFMPASMVKPFKIEMEVTINKYVAKICNSKL
With B1 the “product from 2-debenzoyl-7,13-diacetylbaccatin III and [7-14C]benzoyl CoA” value [1] was “coincide exactly with the retention time of authentic 7,13-diacetylbaccatin III” and the “taxadienol acetyl transacylase activity” value [2] was “did not express taxadienol acetyl transacylase activity; also recorded: inactive”.
